This is an account of results in the supplement of paper PMC9112550, “Optimization of the antimicrobial peptide Bac7 by deep mutational scanning” (BMC Biology, 2022).
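Note: peptides expressed intracellularly from a pBAD plasmid library in pooled LB shake-flask culture, induced with 0.3% L-arabinose, DNA abundance read by NGS, three biological replicates, DESeq2 with apeglm shrinkage.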

The series relates to Escherichia coli TOP10. Kind of series: shrunken log2 fold change of peptide-encoding DNA abundance (4.5 h post-induction vs induction); higher = less antimicrobial activity (less host growth inhibition). The following applies: time post-induction: 4.5 h; library: site-saturation at positions 5, 18, 19, 20.
RRIRKRPPRLPRPRPRPTSWPRP: the “shrunken log2 fold change” value turned out to be 0.6.
On to RRIRARPPRLPRPRPRPHTWPRP, for which the “shrunken log2 fold change” value came out at 0.0641.
Then RRIRERPPRLPRPRPRPIPFPRP, with -0.0238; and RRIRWRPPRLPRPRPRPMAHPRP, with 0.0444.
Next, RRIRPRPPRLPRPRPRPKCWPRP: 0.765; RRIRWRPPRLPRPRPRPWGTPRP: -0.0421.
Take RRIRIRPPRLPRPRPRPIWDPRP: the “shrunken log2 fold change” value is -0.282.
Then RRIRQRPPRLPRPRPRPHMAPRP, with -0.0694; and RRIRIRPPRLPRPRPRPSYDPRP, with -0.414; and RRIRYRPPRLPRPRPRPKLPPRP, with 0.108.
Then RRIRVRPPRLPRPRPRPTYMPRP, with -0.445.
Then RRIRARPPRLPRPRPRPHGWPRP, with 0.184; and RRIRNRPPRLPRPRPRPGNVPRP, with -0.107.
On to RRIRMRPPRLPRPRPRPIDTPRP, for which the “shrunken log2 fold change” value was 0.0143.
Then RRIRVRPPRLPRPRPRPAAKPRP, with 0.348; and RRIRGRPPRLPRPRPRPRPSPRP, with 0.49.
Next, RRIRPRPPRLPRPRPRPYTWPRP: -0.446; RRIRTRPPRLPRPRPRPTKKPRP: 0.0786.
Then RRIRIRPPRLPRPRPRPHKWPRP, with -0.256.
As to RRIRSRPPRLPRPRPRPRITPRP, the “shrunken log2 fold change” value was -0.421.
For RRIRSRPPRLPRPRPRPTMQPRP, the “shrunken log2 fold change” value is -0.106.
Take RRIRARPPRLPRPRPRPLPWPRP: the “shrunken log2 fold change” value turned out to be 0.51.
For the sequence RRIRWRPPRLPRPRPRPCGWPRP, the “shrunken log2 fold change” value is 0.314.
Next, RRIRKRPPRLPRPRPRPIWKPRP: -0.00277; RRIRNRPPRLPRPRPRPKWCPRP: -0.00686; RRIRGRPPRLPRPRPRPNEKPRP: 0.0813.
Then RRIRQRPPRLPRPRPRPSQCPRP, with -0.0618; and RRIRFRPPRLPRPRPRPFVQPRP, with -0.694; and RRIRPRPPRLPRPRPRPGYLPRP, with -0.129.
Next, RRIRPRPPRLPRPRPRPWGSPRP: 0.216.
Consider RRIRDRPPRLPRPRPRPFLLPRP, for which the “shrunken log2 fold change” value amounted to 0.0901.
Next, RRIRMRPPRLPRPRPRPEMPPRP: 0.791; RRIRERPPRLPRPRPRPNITPRP: -0.738; RRIRTRPPRLPRPRPRPRMQPRP: 0.0874.
For RRIRMRPPRLPRPRPRPTKEPRP, the “shrunken log2 fold change” value was -0.0201.
Next, RRIRTRPPRLPRPRPRPPVSPRP: 0.147; RRIRMRPPRLPRPRPRPHRSPRP: -0.0246; RRIRFRPPRLPRPRPRPCVGPRP: -0.433.
Then RRIRCRPPRLPRPRPRPIHFPRP, with -0.368; and RRIRLRPPRLPRPRPRPRMWPRP, with 0.458.
Then RRIRTRPPRLPRPRPRPTIHPRP, with -0.712.
For RRIRPRPPRLPRPRPRPAYGPRP, the “shrunken log2 fold change” value was 0.144.
Then RRIRTRPPRLPRPRPRPCEKPRP, with -0.0336; and RRIRHRPPRLPRPRPRPEIIPRP, with -0.496.
Regarding RRIRVRPPRLPRPRPRPGSQPRP, the “shrunken log2 fold change” value is -0.11.
Then RRIRVRPPRLPRPRPRPRWWPRP, with 0.0125; and RRIRYRPPRLPRPRPRPCAKPRP, with -0.374; and RRIRNRPPRLPRPRPRPCITPRP, with -0.049.
Regarding RRIRNRPPRLPRPRPRPYQLPRP, the “shrunken log2 fold change” value stood at 0.327.
Then RRIRFRPPRLPRPRPRPQRNPRP, with -0.323; and RRIRFRPPRLPRPRPRPCKAPRP, with -0.0248; and RRIRNRPPRLPRPRPRPRVVPRP, with 0.078.
Then RRIRNRPPRLPRPRPRPDRKPRP, with -0.00776.
Then RRIRRRPPRLPRPRPRPIITPRP, with -0.253; and RRIRVRPPRLPRPRPRPFKNPRP, with -0.055.
On to RRIRDRPPRLPRPRPRPATSPRP, for which the “shrunken log2 fold change” value worked out at 0.303.
Then RRIRDRPPRLPRPRPRPWVGPRP, with 0.0332; and RRIRPRPPRLPRPRPRPQILPRP, with -0.172; and RRIRGRPPRLPRPRPRPWSGPRP, with 0.0316.
Next, RRIRIRPPRLPRPRPRPHFVPRP: -0.565; RRIRGRPPRLPRPRPRPWCYPRP: 0.0576; RRIRPRPPRLPRPRPRPFCIPRP: -0.463.
Next, RRIRMRPPRLPRPRPRPAHSPRP: 0.111; RRIRQRPPRLPRPRPRPGTIPRP: -0.259.
For RRIRERPPRLPRPRPRPGYNPRP, the “shrunken log2 fold change” value was -0.0871.
Then RRIRARPPRLPRPRPRPQKWPRP, with 0.301; and RRIRQRPPRLPRPRPRPLTDPRP, with 0.132.
With RRIRERPPRLPRPRPRPDNLPRP, the “shrunken log2 fold change” value was -0.00994.
Regarding RRIRMRPPRLPRPRPRPLPEPRP, the “shrunken log2 fold change” value is 1.24.
Next, RRIRARPPRLPRPRPRPRCTPRP: 0.392.
As for RRIRERPPRLPRPRPRPRHNPRP, the “shrunken log2 fold change” value was -0.137.
Next, RRIRMRPPRLPRPRPRPFACPRP: -0.1; RRIRHRPPRLPRPRPRPRDIPRP: 0.115.
Turning to RRIRSRPPRLPRPRPRPKDSPRP, the “shrunken log2 fold change” value came out at 0.1.
Next, RRIRERPPRLPRPRPRPPGVPRP: 0.232.
Then RRIRRRPPRLPRPRPRPKILPRP, with -0.199.
Next, RRIRYRPPRLPRPRPRPWNDPRP: -0.0728.
Turning to RRIRVRPPRLPRPRPRPWFAPRP, the “shrunken log2 fold change” value was -0.191.
Take RRIRMRPPRLPRPRPRPVLQPRP: the “shrunken log2 fold change” value came to 0.259.
For RRIRVRPPRLPRPRPRPISPPRP, the “shrunken log2 fold change” value was determined as 0.129.
Regarding RRIRSRPPRLPRPRPRPIKCPRP, the “shrunken log2 fold change” value was -0.0332.
Next, RRIRKRPPRLPRPRPRPWSRPRP: -0.0012.
Next, RRIRHRPPRLPRPRPRPFQNPRP: -0.195.
Then RRIRARPPRLPRPRPRPCDTPRP, with 0.255; and RRIRCRPPRLPRPRPRPPTQPRP, with 0.515; and RRIRRRPPRLPRPRPRPLDPPRP, with 0.5.
Turning to RRIRPRPPRLPRPRPRPAGWPRP, the “shrunken log2 fold change” value turned out to be 0.765.
As for RRIRERPPRLPRPRPRPEHYPRP, the “shrunken log2 fold change” value is -0.454.
Next, RRIRCRPPRLPRPRPRPLHFPRP: -0.131; RRIRIRPPRLPRPRPRPPRKPRP: 0.0691; RRIRLRPPRLPRPRPRPILNPRP: -0.389.
For RRIRERPPRLPRPRPRPMGCPRP, the “shrunken log2 fold change” value amounted to 0.111.
Next, RRIRMRPPRLPRPRPRPQKLPRP: 0.0146; RRIRTRPPRLPRPRPRPAKNPRP: -0.0492; RRIRIRPPRLPRPRPRPYHAPRP: -0.0781.
Then RRIRVRPPRLPRPRPRPVNIPRP, with -0.584.
Turning to RRIRLRPPRLPRPRPRPTMHPRP, the “shrunken log2 fold change” value amounted to 0.0766.
Then RRIRGRPPRLPRPRPRPKYDPRP, with 1.62.
Next, RRIRHRPPRLPRPRPRPFINPRP: -0.205; RRIRARPPRLPRPRPRPENLPRP: 0.0156; RRIRPRPPRLPRPRPRPVGSPRP: 0.261.
Then RRIRTRPPRLPRPRPRPVPIPRP, with -0.0974.
Take RRIRTRPPRLPRPRPRPLQAPRP: the “shrunken log2 fold change” value worked out at 0.00547.
Take RRIRCRPPRLPRPRPRPVDLPRP: the “shrunken log2 fold change” value was -0.348.
Then RRIRPRPPRLPRPRPRPHLKPRP, with -0.000265; and RRIRWRPPRLPRPRPRPSYNPRP, with -0.343; and RRIRARPPRLPRPRPRPIVMPRP, with -0.0831.
Next, RRIRPRPPRLPRPRPRPGVVPRP: 0.215.
Next, RRIRGRPPRLPRPRPRPPYKPRP: 0.18; RRIRGRPPRLPRPRPRPWLIPRP: -0.192; RRIRGRPPRLPRPRPRPYPVPRP: 0.0121.
Turning to RRIRGRPPRLPRPRPRPKREPRP, the “shrunken log2 fold change” value was -0.00218.
Then RRIRCRPPRLPRPRPRPDSYPRP, with -0.286; and RRIRLRPPRLPRPRPRPKKAPRP, with -0.0389; and RRIRFRPPRLPRPRPRPCDDPRP, with -0.00233.
Next, RRIRHRPPRLPRPRPRPFQKPRP: 0.00797; RRIRTRPPRLPRPRPRPSGSPRP: 0.204; RRIRCRPPRLPRPRPRPTKPPRP: 0.531.
Next, RRIRQRPPRLPRPRPRPQWKPRP: -0.0075.
For RRIRHRPPRLPRPRPRPNTAPRP, the “shrunken log2 fold change” value is -0.246.
Then RRIRERPPRLPRPRPRPRNHPRP, with -0.367; and RRIRWRPPRLPRPRPRPNAVPRP, with 0.259; and RRIRQRPPRLPRPRPRPRSKPRP, with 0.185.
Next, RRIRNRPPRLPRPRPRPIRWPRP: 0.18; RRIRNRPPRLPRPRPRPCHTPRP: -0.316.
